One block for each binder: values may come before it.
Key:
Assay in all cases: two-hybrid library CCNG1;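 also: natural log of median RNA to DNA barcode read ratio; higher means stronger binding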
4H2944-bN = target: T1, 4H2944-bN
T1 chain: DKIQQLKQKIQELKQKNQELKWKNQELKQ

4H342-bN = target: T2, 4H342-bN
T2 chain: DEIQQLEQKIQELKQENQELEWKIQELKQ

4H491-bN = target: T3, 4H491-bN
T3 chain: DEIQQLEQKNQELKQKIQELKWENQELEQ

4H48-bN = target: T4, 4H48-bN
T4 chain: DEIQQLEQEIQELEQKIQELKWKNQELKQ

4H2696-bN = target: T5, 4H2696-bN
T5 chain: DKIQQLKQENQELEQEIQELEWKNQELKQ

4H2883-bN = target: T6, 4H2883-bN
T6 chain: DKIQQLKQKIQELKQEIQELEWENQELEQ

4H2937-bN = target: T7, 4H2937-bN
T7 chain: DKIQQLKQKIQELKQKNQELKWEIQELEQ

4H918-bA = target: T8, 4H918-bA
T8 chain: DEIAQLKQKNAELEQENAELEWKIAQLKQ

4H855-bA = target: T9, 4H855-bA
T9 chain: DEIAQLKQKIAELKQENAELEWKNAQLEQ

4H3926-bA = target: T10, 4H3926-bA
T10 chain: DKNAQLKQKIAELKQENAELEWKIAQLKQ

4H4073-bA = target: T11, 4H4073-bA
T11 chain: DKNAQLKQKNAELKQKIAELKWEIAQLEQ

4H953-bA = target: T12, 4H953-bA
T12 chain: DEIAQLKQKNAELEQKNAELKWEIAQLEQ

4H2702-bA = target: T13, 4H2702-bA
T13 chain: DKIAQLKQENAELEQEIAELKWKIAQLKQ

4H2673-bA = target: T14, 4H2673-bA
T14 chain: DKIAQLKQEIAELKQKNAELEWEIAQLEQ

4H2586-bA = target: T15, 4H2586-bA
T15 chain: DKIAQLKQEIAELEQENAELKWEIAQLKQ

O8-bH = target: T16, O8-bH
T16 chain: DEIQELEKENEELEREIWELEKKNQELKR

4H754-bA = target: T17, 4H754-bA
T17 chain: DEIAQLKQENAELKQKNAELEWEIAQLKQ

4H118-bA = target: T18, 4H118-bA
T18 chain: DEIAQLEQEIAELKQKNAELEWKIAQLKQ

4H683-bA = target: T19, 4H683-bA
T19 chain: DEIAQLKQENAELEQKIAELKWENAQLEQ

4H1158-bA = target: T20, 4H1158-bA
T20 chain: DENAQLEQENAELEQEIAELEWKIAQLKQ

4H2627-bA = target: T21, 4H2627-bA
T21 chain: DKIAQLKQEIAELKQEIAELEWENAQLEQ

4H112-bA = target: T22, 4H112-bA
T22 chain: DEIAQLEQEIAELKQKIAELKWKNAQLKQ

4H3427-bA = target: T23, 4H3427-bA
T23 chain: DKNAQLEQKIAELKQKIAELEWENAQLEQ

4H1831-bA = target: T24, 4H1831-bA
T24 chain: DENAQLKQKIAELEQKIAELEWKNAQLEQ

4H968-bA = target: T25, 4H968-bA
T25 chain: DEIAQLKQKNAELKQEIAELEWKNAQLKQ

4H457-bA = target: T26, 4H457-bA
T26 chain: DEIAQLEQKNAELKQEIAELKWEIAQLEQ

4H3907-bN = target: T27, 4H3907-bN
T27 chain: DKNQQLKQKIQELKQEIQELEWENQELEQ

4H797-bA = target: T28, 4H797-bA
T28 chain: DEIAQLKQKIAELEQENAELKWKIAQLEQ

4H346-bA = target: T29, 4H346-bA
T29 chain: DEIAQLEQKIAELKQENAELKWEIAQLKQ

4H3010-bA = target: T30, 4H3010-bA
T30 chain: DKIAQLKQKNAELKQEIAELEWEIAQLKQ

4H170-bA = target: T31, 4H170-bA
T31 chain: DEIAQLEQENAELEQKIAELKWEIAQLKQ

4H575-bA = target: T32, 4H575-bA
T32 chain: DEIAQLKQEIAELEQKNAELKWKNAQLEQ

4H780-bA = target: T33, 4H780-bA
T33 chain: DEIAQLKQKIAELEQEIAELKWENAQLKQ

4H3112-bA = target: T34, 4H3112-bA
T34 chain: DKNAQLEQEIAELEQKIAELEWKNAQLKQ

P8bH1 = target: T35, P8bH1
T35 chain: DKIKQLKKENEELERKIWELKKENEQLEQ

P4bH1 = target: T36, P4bH1
T36 chain: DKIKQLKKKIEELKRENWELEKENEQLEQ

P2bH1 = target: T37, P2bH1
T37 chain: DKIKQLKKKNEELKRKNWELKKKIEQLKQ

P7bH1 = target: T38, P7bH1
T38 chain: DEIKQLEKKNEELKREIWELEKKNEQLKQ

P3bH1 = target: T39, P3bH1
T39 chain: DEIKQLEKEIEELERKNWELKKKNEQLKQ

P5bH1 = target: T40, P5bH1
T40 chain: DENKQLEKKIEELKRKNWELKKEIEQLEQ

P11bH1 = target: T41, P11bH1
T41 chain: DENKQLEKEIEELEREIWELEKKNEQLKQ

P12bH1 = target: T42, P12bH1
T42 chain: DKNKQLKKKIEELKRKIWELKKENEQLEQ

P9bH1 = target: T43, P9bH1
T43 chain: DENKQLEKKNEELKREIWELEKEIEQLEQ

P1bH1 = target: T44, P1bH1
T44 chain: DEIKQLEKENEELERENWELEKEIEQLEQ

P6bH1 = target: T45, P6bH1
T45 chain: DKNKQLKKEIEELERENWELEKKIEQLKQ

interaction score (4H2944-bN): -0.274
interaction score (4H342-bN): -0.885
interaction score (4H491-bN): 0.0322
interaction score (4H48-bN): -1.05
interaction score (4H2696-bN): -0.134
interaction score (4H2883-bN): 1.32
interaction score (4H2937-bN): 0.131
Binder: DKIQQLKQENQELEQEIQELEWKNQELKQ [4H2696-bN]

interaction score (4H918-bA): -1.12
interaction score (4H855-bA): 0.496
interaction score (4H3926-bA): 0.327
interaction score (4H4073-bA): 1.5
interaction score (4H953-bA): 0.0535
interaction score (4H2702-bA): 0.586
interaction score (4H2673-bA): 1.17
interaction score (4H2586-bA): -0.329
interaction score (O8-bH): -2.98
interaction score (4H754-bA): -0.627
interaction score (4H118-bA): -1.17
interaction score (4H683-bA): 0.303
interaction score (4H1158-bA): 0.722
interaction score (4H2627-bA): 1.89
interaction score (4H112-bA): 2.02
interaction score (4H3427-bA): 1.34
interaction score (4H1831-bA): -0.538
interaction score (4H968-bA): 0.422
interaction score (4H457-bA): 1.18
interaction score (4H3907-bN): 1.94
interaction score (4H797-bA): 0.104
interaction score (4H346-bA): -0.491
interaction score (4H3010-bA): 1.69
interaction score (4H170-bA): 0.905
interaction score (4H575-bA): -0.781
interaction score (4H780-bA): -0.588
interaction score (4H3112-bA): 1.9
Binder: DEIAQLEQEIAELKQKIAELKWKNAQLKQ [4H112-bA]

interaction score (P8bH1): 0.239
interaction score (P4bH1): 1.12
interaction score (P2bH1): 1.25
interaction score (P7bH1): -0.507
interaction score (P3bH1): -0.0263
interaction score (P5bH1): 1.1
interaction score (P11bH1): 0
interaction score (P12bH1): 0.0252
interaction score (P9bH1): -0.076
interaction score (P1bH1): -2.02
interaction score (P6bH1): 0.725
Binder: DENKQLEKEIEELEREIWELEKKNEQLKQ [P11bH1]

— PMC10397247
